The text below walks through data of PMC13147308.

What is called Kd is the concentration at which binding is half-saturated. High values mean lower affinity, low ones higher affinity. The term stoichiometry N denotes a count of units in the complex or per binding partner.

Experiment [1] deals with SauCas9 WED-PI domain construct, His-tagged (Staphylococcus aureus). The experiment can be described thus: ITC; AcrIIA13b mutants E31K and E39K with SauCas9 and WED-PI (Fig. S7); buffer not told for this experiment.
For experiment [2], the target named is SauCas9 PI (PAM-interacting) domain, His-tagged (Staphylococcus aureus). The experiment can be described thus: ITC; PBS pH 7.4, 20 °C; AcrIIA13b (500 μM) injected into the target protein (50 μM) in the cell, 25 injections; single-site model. For orientation: ITC needs no label: the signal is the heat of the interaction.
Experiment [3] has as its target Staphylococcus aureus Cas9, full length, His-tagged (Staphylococcus aureus) (UniProt J7RUA5). Described as above.
The target of experiment [4] is Staphylococcus haemolyticus AcrIIA13b, wild type, with C-terminal 6xHis tag (Staphylococcus haemolyticus). Kind of experiment: SEC-MALS; Superdex 200 Increase 10/300 GL, 20 mM Tris/HCl pH 8.0, 150 mM NaCl, 20 °C, 0.5 mL/min; SEC profiles and MALS of wild type and mutants; monomer and dimer peaks coexist. (SEC sorts molecules by how far they enter the pores of the column.)

Experiment [5] addresses Staphylococcus aureus Cas9, full length, His-tagged (UniProt J7RUA5). The experiment can be described thus: SEC co-migration followed by SDS/PAGE band quantification. The settings on record: fraction eluted around 12 mL in SEC; n = 3; parent: est. 100; read off a plot.

The substance AcrIIA13b E39K mutant (natural protein) came in with a Kd in experiment [1] of 1310 nM.

Take “Staphylococcus haemolyticus AcrIIA13b, wild type, with C-terminal 6xHis tag (natural protein)”: the values for the Kd in experiment [2] and in experiment [3] were 970 nM and 4470 nM, respectively. For the same substance, the stoichiometry N in experiment [4] stood at 2.

Take “Staphylococcus haemolyticus AcrIIA13b, wild type, with C-terminal 6xHis tag E21K”: the percent of parent in experiment [5] was 75%.

Regarding “Staphylococcus haemolyticus AcrIIA13b, wild type, with C-terminal 6xHis tag E31K”, the percent of parent in experiment [5] was 13%.

Turning to “Staphylococcus haemolyticus AcrIIA13b, wild type, with C-terminal 6xHis tag E39K”, the percent of parent in experiment [5] turned out to be 35%.

For the substance “Staphylococcus haemolyticus AcrIIA13b, wild type, with C-terminal 6xHis tag E89W”, in experiment [5], the percent of parent was found to be 84%.

Regarding “Staphylococcus haemolyticus AcrIIA13b, wild type, with C-terminal 6xHis tag E94W”, the percent of parent in experiment [5] is 87%.

In the case of “Staphylococcus haemolyticus AcrIIA13b, wild type, with C-terminal 6xHis tag Q25W”, the percent of parent in experiment [5] was 46%.

As to “Staphylococcus haemolyticus AcrIIA13b, wild type, with C-terminal 6xHis tag Q87W”, in experiment [5], the percent of parent was found to be 75%.
